Blank lines part the entries; values can stand above or below the binder they belong to. Where no end group is shown, it is not given here. [ ]: non-standard residue; d: D form. Lys(Me3) = C[N+](C)(C)CCCC[C@H](N)C(=O)O; Lys(Me2) = CN(C)CCCC[C@H](N)C(=O)O; Lys(Me) = CNCCCC[C@H](N)C(=O)O
Experiments:
[1] = molecular target: T1, Spindlin1_(50-262) bound to DOCpep3 (human | , UniProt Q9Y657 50-262; Q9BUA3 256-281); assay: ITC
T1 chain 1: […]
T1 chain 2: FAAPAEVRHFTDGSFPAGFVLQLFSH

[2] = molecular target: Spindlin1_(50-262) bound to DOCpep(1-3) (human | , UniProt Q9Y657 50-262; Q9BUA3 188-281); assay: ITC
Spindlin1 F141A = Spindlin1 F141A (human, UniProt Q9Y657 50-262, F141A); assay: ITC
Human Spindlin1 50-262 [3] = molecular target: T2, Human Spindlin1 50-262 (human, UniProt Q9Y657 50-262); assay: ITC
Spindlin1 Y177A = Spindlin1 Y177A (human, UniProt Q9Y657 50-262, Y177A); assay: ITC
Spindlin1 W151A = Spindlin1 W151A (human, UniProt Q9Y657 50-262, W151A); assay: ITC
Human Spindlin1 50-262 [4] = molecular target: T2, Human Spindlin1 50-262; assay: thermal shift assay
SEC = molecular target: the molecule itself; assay: SEC
native gel or EMSA = molecular target: the molecule itself; assay: native gel or EMSA

Chain of Spindlin1 Y177A (Q9Y657 50-262 Y177A): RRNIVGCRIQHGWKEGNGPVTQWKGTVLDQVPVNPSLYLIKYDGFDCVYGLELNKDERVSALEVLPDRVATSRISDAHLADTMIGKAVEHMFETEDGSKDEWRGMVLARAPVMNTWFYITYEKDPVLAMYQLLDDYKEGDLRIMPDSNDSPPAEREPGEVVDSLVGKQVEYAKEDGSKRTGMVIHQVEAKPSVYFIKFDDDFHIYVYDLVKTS
Chain of Spindlin1 F141A (Q9Y657 50-262 F141A): as the sequence (Q9Y657 50-262 Y177A) above, with F92A, A128Y counted along it
Chain of Spindlin1 W151A (Q9Y657 50-262 W151A): as the sequence (Q9Y657 50-262 Y177A) above, with W102A, A128Y counted along it

binding result [1]: binds
B1: histone H3 1-15 K4me3K9me3 peptide (peptide)
peptide: ART[Lys(Me3)]QTAR[Lys(Me3)]STGGKA

binding result [1]: binds
fold decrease of binding affinity in the presence of DOCpep(1-3) [2]: ~4.5 fold
B2: histone H3 1-15 K4me3K9me2 peptide (peptide)
peptide: ART[Lys(Me3)]QTAR[Lys(Me2)]STGGKA

binding result (Spindlin1 F141A): binds
Kd (Human Spindlin1 50-262 [3]): 31 µM
binding result (Spindlin1 Y177A): binds
binding result (Spindlin1 W151A): binds
B3: DOCpep2, SPIN•DOC 228-239 peptide (peptide, UniProt Q9BUA3 228-239, looked up)
peptide: VRKKRGRPMTKN

binding result [1]: binds
fold decrease of binding affinity in the presence of DOCpep(1-3) [2]: ~17 fold
B4: histone H3 1-15 K4me3K9me1 peptide (peptide)
peptide: ART[Lys(Me3)]QTAR[Lys(Me)]STGGKA

Kd (Human Spindlin1 50-262 [3]): 7.6 µM
stoichiometry N (Human Spindlin1 50-262 [3]): 0.5
B5: SPIN•DOC 184-240, the whole K/R-rich region (domain or fragment)
chain: NPSLPKRSRPRGLRPLELPAVPATEPGNKKPRGQRWKEPPGEEPVRKKRGRPMTKNL

binding result (Human Spindlin1 50-262 [4]): binds
B6: SPIN•DOC 188-281, DOCpep(1-3) (domain or fragment)
chain: PKRSRPRGLRPLELPAVPATEPGNKKPRGQRWKEPPGEEPVRKKRGRPMTKNLDPDPEPPSPDSPTETFAAPAEVRHFTDGSFPAGFVLQLFSH

Further lines, the binder ahead of its results:

B7: full-length SPIN•DOC with N-terminal 6xHis tag, co-expressed with Spindlin1 (natural protein, UniProt Q9BUA3 1-381, looked up)
chain: MALKAEGAALDCFEVTLKCEEGEDEEEAMVVAVIPRPEPMLRVTQQEKTPPPRPSPLEAGSDGCEEPKQQVSWEQEFLVGSSPGGSGRALCMVCGAEIRAPSADTARSHILEQHPHTLDLSPSEKSNILEAWSEGVALLQDVRAEQPSPPNSDSGQDAHPDPDANPDAARMPAEIVVLLDSEDNPSLPKRSRPRGLRPLELPAVPATEPGNKKPRGQRWKEPPGEEPVRKKRGRPMTKNLDPDPEPPSPDSPTETFAAPAEVRHFTDGSFPAGFVLQLFSHTQLRGPDSKDSPKDREVAEGGLPRAESPSPAPPPGLRGTLDLQVIRVRMEEPPAVSLLQDWSRHPQGTKRVGAGDTSDWPTVLSESSTTVAGKPEKGNGV
stoichiometry N (SEC): 2

B8: GFP-SPIN•DOC wild type (natural protein, UniProt Q9BUA3 1-381, looked up)
chain: B7 chain
stoichiometry N (native gel or EMSA): 2

B9: Flag-SPIN•DOC wild type (natural protein, UniProt Q9BUA3 1-381, looked up)
chain: B7 chain
stoichiometry N (native gel or EMSA): 2

B10: DOCpep1, SPIN•DOC 187-195 peptide (peptide)
peptide: LPKRSRPRG
Kd (Human Spindlin1 50-262 [3]): 78 µM

B11: DOCpep1 K189A peptide (peptide)
peptide: LPARSRPRG
fold reduction of binding against wild-type DOCpep1 (Human Spindlin1 50-262 [3]): 9 fold

B12: DOCpep1 R192A peptide (peptide)
peptide: LPKRSAPRG
fold reduction of binding against wild-type DOCpep1 (Human Spindlin1 50-262 [3]): 11 fold
